Where “and” joins values, the source holds several entries; their conditions need not be identical. Identical values can stand only once.
Biological target: Ab2/3H6, murine/wild-type anti-idiotypic antibody (wt3H6) (mouse (developed from mouse hybridoma))
Test: BLI

B1: broadly neutralizing anti-HIV-1 antibody 2F5 (antibody, V domains shown)
VH: RITLKESGPPLVKPTQTLTLTCSFSGFSLSDFGVGVGWIRQPPGKALEWLAIIYSDDDKRYSPSLNTRLTITKDTSKNQVVLVMTRVSPVDTATYFCAHRRGPTTLFGVPIARGPVNAMDVWGQGITVTISS
VL: ALQLTQSPSSLSASVGDRITITCRASQGVTSALAWYRQKPGSPPQLLIYDASSLESGVPSRFSGSGSGTEFTLTISTLRPEDFATYYCQQLHFYPHTFGGGTRVDVR
With B1 as the binder, how does the response level read?
The response level was 3.5 nm and 3.4 nm.

— publication PMC4948679
